This passage reports percent of Bbox1 bound to alpha45 (at 1:0.5) and stoichiometry N results from article PMC3237570.

As usually defined, the stoichiometry N is the number of molecules, sites or subunits per partner or assembly.

The target in the experiment is Bbox1 domain of MID1. As to the kind of experiment: NMR titration; 1H-15N HSQC at 21°C, aqueous solution; 0.15 mM unlabeled alpha45 added to 0.3 mM 15N-labeled Bbox1 (Bbox1 to alpha45 1:0.5).

“alpha45 (45-amino acid region of the C-terminus of alpha4, residues Glu236 to Leu280) (from UniProt P78318 236-280) (domain or fragment)” yielded a percent of Bbox1 bound to alpha45 (at 1:0.5) of 40 to 50% and a stoichiometry N of 1.
